Measured values taken from US20250115677A1, “Anti-CEA Antibody Drug Conjugates and Methods of Use” (BeiGene Switzerland GmbH, priority 2022, published 2025).
Changes are numbered by the printed parent chain. Names and notes keep the numbering of the source.

B1: BGA0089 (antibody, human IgG1, V domains shown)
VH: QVQLVQSGAEVKKPGASVKVSCKASGYIFTSYWLHWVRQAPGQGLEWIGYINPQTGYTNYAQKFQGRVTMTRDTSTSTVYMELSSLRSEDTAVYYCAREYGNYNYPLDYWGQGTLVTVSS
VL: DIQMTQSPSSLSASVGDRVTITCRASENQYGYLAWYQQKPGKVPKLLIYNTKNLVEGVPSRFSGSGSGTDFTLTISSLQPEDVATYYCQHHLGTPYTFGQGTKVEIK
notes: Built on the BGA7592-1F-ph-M (BGA2433) template; human IgG1/kappa
B2: BGA1789 (antibody, human IgG1, V domains shown)
VH: B1 VH with N59S
VL: B1 VL with T51Y
notes: as for B1
B3: BGA2107 (antibody, human IgG1, V domains shown)
VH: B1 VH with Q54N, N59S
VL: B1 VL
notes: as for B1
B4: BGA9962 (antibody, human IgG1, kappa, V domains shown)
VH: B1 VH with W33Y, Y57K, N59S
VL: DIQMTQSPSSLSASVGDRVTITCRASENQYGYLAWYQQKPGKVPKLLIYNYKNLVEGVPSRFSGSGSGTDFTLTISSLQPEDVATYYCQHHLGTPYTFGQGTKVEIKR
modifications: linker-payload conjugated after reduction of the antibody, DAR 8 (structure only as a drawing in Table 18)
B5: BGA8357 (antibody, human IgG1, kappa, V domains shown)
VH: B1 VH with W33Y, Y57K, N59S
VL: B4 VL
modifications: linker-payload conjugated after reduction of the antibody, DAR 8 profile (structure only as a drawing in Table 18)
B6: BGA0084 (antibody, human IgG1, kappa, V domains shown)
VH: B1 VH with W33Y, Y57K, N59S
VL: B4 VL
modifications: linker-payload conjugated after reduction of the antibody, DAR 8 profile (structure only as a drawing in Table 18)
B7: BGA7413 (antibody, human IgG1, kappa, V domains shown)
VH: B1 VH with W33Y, Y57K, N59S
VL: B4 VL
modifications: linker-payload conjugated after reduction of the antibody, DAR 8 profile (structure only as a drawing in Table 18)
B8: BGA2490 (antibody, human IgG1, kappa, V domains shown)
VH: B1 VH with W33Y, Y57K, N59S
VL: B4 VL
modifications: linker-payload conjugated after reduction of the antibody, DAR 8 profile (structure only as a drawing in Table 18)
B9: BGA2588 (BGA5384 conjugated with DXD) (antibody, human IgG1, kappa, V domains shown)
VH: B1 VH with W33Y, Y57K, N59S
VL: B4 VL
modifications: DXD linker-payload conjugated after reduction of the antibody, DAR 8 profile (structure only as a drawing in Table 18)
B10: BGA6710 variant L92E (antibody, V domains shown)
VH: B1 VH with W33Y, N59S
VL: B1 VL with T51Y, L92E
notes: IgG format; L92E in the light chain
B11: BGA6710 variant L92E, Y57K (antibody, V domains shown)
VH: B1 VH with W33Y, Y57K, N59S
VL: B1 VL with T51Y, L92E
notes: IgG format
B12: BGA6710 variant Q54E, Y57E (antibody, V domains shown)
VH: B1 VH with W33Y, Q54E, Y57E, N59S
VL: B1 VL with T51Y
notes: IgG format; both changes in the heavy chain
B13: BGA6710 variant Q54E, Y57K (antibody, V domains shown)
VH: B1 VH with W33Y, Q54E, Y57K, N59S
VL: B1 VL with T51Y
notes: as for B12
B14: BGA6710 variant Y57D (antibody, V domains shown)
VH: B1 VH with W33Y, Y57D, N59S
VL: B1 VL with T51Y
notes: IgG format; change in the heavy chain
B15: BGA6710 variant K13E, Y57K (antibody, V domains shown)
VH: B1 VH with K13E, W33Y, Y57K, N59S
VL: B1 VL with T51Y
notes: as for B12

Target: T1, chimeric construct (CHIM) (human)
T1 construct: CEACAM6 AA 1-273 joined to the membrane-peripheral region containing domain B3 of CEA (AA 596-687), C-terminal 6xHis; also called chimeric CEA
T1 chain: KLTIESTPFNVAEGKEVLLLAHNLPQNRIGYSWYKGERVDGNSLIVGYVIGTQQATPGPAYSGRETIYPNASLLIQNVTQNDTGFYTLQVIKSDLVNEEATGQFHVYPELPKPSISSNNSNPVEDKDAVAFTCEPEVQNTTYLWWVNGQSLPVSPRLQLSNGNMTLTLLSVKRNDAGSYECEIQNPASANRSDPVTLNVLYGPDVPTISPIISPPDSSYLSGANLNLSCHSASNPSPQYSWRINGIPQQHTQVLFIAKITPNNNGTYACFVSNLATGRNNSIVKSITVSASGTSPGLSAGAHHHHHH
Assay: SPR; binding to CHIM
Details: not given

| Molecule | Kd | koff | kon |
| --- | --- | --- | --- |
| B1 | 21.5 nM | 0.000394 s⁻¹ | 18400 M⁻¹ s⁻¹ |
| B2 | 14.4 nM | 0.000463 s⁻¹ | 32100 M⁻¹ s⁻¹ |
| B3 | 19.2 nM | 0.00038 s⁻¹ | 19800 M⁻¹ s⁻¹ |

target: T2, human CEA on cells (MKN45, LOVO, NCI-H2122, LS174T, CT26/CEA) (human, UniProt P06731 35-685); assay: cell-based or functional assay; details: not given
T2 sequence: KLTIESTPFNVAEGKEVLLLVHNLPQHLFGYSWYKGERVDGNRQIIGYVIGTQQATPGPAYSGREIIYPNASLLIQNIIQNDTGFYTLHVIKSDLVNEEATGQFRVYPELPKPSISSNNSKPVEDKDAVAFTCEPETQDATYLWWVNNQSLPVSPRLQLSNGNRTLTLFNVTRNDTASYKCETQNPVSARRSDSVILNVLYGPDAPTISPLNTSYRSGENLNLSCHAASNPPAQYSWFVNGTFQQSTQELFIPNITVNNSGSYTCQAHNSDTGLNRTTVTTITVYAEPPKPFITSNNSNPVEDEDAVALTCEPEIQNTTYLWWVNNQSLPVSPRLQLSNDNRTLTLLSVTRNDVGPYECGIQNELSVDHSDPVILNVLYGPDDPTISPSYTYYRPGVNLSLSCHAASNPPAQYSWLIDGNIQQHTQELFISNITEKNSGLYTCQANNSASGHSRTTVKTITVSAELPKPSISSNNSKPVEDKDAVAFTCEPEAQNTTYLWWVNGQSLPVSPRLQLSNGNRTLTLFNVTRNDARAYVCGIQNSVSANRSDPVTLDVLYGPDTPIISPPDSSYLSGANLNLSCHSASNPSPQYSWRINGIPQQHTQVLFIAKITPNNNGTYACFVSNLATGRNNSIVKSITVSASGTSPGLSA

| Molecule | EC50, cell killing of MKN45 cells | Emax, cell killing of MKN45 cells |
| --- | --- | --- |
| B4 | 0.39 nM | 87.1 |
| B5 | 0.38 nM | 89.1 |
| B6 | 0.38 nM | 88.8 |
| B7 | 0.46 nM | 87.2 |
| B8 | 0.44 nM | 89 |
| B9 | 0.46 nM | 85 |

target: T2, human CEA on cells (MKN45, LOVO, …); assay: cell-based or functional assay; details: not given; remark: another data set of the same source

| Molecule | EC50, cell killing of NCI-H2122 cells | Emax, cell killing of NCI-H2122 cells |
| --- | --- | --- |
| B4 | 0.17 nM | 80 |
| B5 | 0.14 nM | 83.9 |
| B6 | 0.19 nM | 83.8 |
| B7 |  | 81.5 |
| B8 | 0.19 nM | 82.8 |
| B9 | 0.22 nM | 74 |

target: T2, human CEA on cells (MKN45, LOVO, …); assay: cell-based or functional assay; details: not given; remark: another data set of the same source

| Molecule | EC50, cell killing of LS174T cells | Emax, cell killing of LS174T cells |
| --- | --- | --- |
| B4 | 0.83 nM | 66.7 |
| B5 | 0.67 nM | 71.8 |
| B6 | 0.85 nM | 69.9 |
| B7 | 0.88 nM | 66.9 |
| B8 | 0.76 nM | 70.3 |
| B9 | 1.12 nM | 69.7 |

target: T2, human CEA on cells (MKN45, LOVO, …); assay: flow cytometry on MKN45 cells; details: not given

| Molecule | EC50 | Top |
| --- | --- | --- |
| B10 | 1.19 µg/mL | 945 |
| B11 | 1.09 µg/mL | 970 |
| B12 | 0.65 µg/mL | 927 |
| B13 | 0.58 µg/mL | 902 |
| B14 | 0.56 µg/mL | 949 |

target: T3, CHIM (Homo sapiens, UniProt P06731, A174T/A211G/A239V/A261S/A267P/C12H/D173N/E253A/E283V/F203L/F272R/F277P/F63I/H123Q/H61N/H9C/I100T/I112V/I113T/I13V/I230T/I80V/INS244IISP/K155N/K214E/L18V/L245P/L62R/N182G/N204S/N246D/N288K/P266S/P287A/Q16K/Q78L/R139H/R17E/R198M/R224N/R250L/R77S/S228P/S280H/T171V/T206K/T210A/T217I/T247S/T276I/V221A/V273I/V291P/V55A/W11L); assay: SPR affinity comparison of affinity matured humanized BGA7592 variants on CHIM; type: binding; details: not given
T3 construct: CEACAM6 N-terminal part (fusion partner); 6xHis (C); made in house; host or cells: HEK293-based mammalian cell expression system
T3 sequence (P06731 with tags, fused parts or gaps H9C/W11L/C12H/I13V/Q16K/R17E/L18V/V55A/H61N/L62R/F63I/R77S/Q78L/I80V/I100T/I112V/I113T/H123Q/R139H/K155N/T171V/D173N/A174T/N182G/R198M/F203L/N204S/T206K/T210A/A211G/K214E/T217I/V221A/R224N/S228P/I230T/A239V/INS244IISP/L245P/N246D/T247S/R250L/E253A/A261S/P266S/A267P/F272R/V273I/T276I/F277P/S280H/E283V/P287A/N288K/V291P): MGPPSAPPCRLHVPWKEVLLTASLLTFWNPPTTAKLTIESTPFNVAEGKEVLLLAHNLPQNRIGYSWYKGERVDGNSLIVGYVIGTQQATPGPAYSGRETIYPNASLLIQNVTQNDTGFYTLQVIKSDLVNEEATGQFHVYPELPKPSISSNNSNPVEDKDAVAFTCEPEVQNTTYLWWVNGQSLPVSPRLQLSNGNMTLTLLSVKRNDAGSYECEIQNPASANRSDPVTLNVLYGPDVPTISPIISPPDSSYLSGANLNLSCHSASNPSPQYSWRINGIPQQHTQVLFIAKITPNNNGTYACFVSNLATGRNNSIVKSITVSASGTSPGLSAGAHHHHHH

| Molecule | binding activities compared to BGA7592-1F-ph-F (BGA9521) |
| --- | --- |
| B1 | improved binding activities |
| B3 | improved binding activities |

same assay, conditions: Table 11, SPR to CHIM

| Molecule | Ka | Rmax |
| --- | --- | --- |
| B1 | 18400 M⁻¹ s⁻¹ | 59.4 RU |
| B3 | 19800 M⁻¹ s⁻¹ | 71.1 RU |

target: T4, recombinant soluble human CEA (extracellular domain, AA 1-687 of huCEA, C-terminal 6xHis) (human, UniProt P06731 35-687); assay: SPR; kinetics on huCEA, IgG format; details: not given
T4 construct: also called sCEA; soluble CEA
T4 sequence: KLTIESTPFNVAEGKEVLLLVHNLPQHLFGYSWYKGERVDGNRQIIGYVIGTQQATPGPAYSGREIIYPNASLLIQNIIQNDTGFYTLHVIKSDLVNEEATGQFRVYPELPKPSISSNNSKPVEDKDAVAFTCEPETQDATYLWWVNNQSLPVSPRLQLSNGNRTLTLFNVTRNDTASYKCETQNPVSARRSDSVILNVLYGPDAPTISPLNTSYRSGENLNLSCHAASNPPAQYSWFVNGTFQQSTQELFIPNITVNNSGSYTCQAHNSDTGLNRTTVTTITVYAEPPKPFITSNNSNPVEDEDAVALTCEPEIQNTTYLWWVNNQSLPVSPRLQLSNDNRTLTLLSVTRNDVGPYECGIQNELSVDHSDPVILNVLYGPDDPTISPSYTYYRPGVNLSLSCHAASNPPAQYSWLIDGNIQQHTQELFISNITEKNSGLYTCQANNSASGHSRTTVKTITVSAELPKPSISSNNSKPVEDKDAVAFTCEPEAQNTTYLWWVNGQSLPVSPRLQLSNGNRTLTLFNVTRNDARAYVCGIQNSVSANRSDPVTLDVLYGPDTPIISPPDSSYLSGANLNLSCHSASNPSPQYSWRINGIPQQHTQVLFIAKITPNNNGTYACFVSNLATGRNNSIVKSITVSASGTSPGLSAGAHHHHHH

| Molecule | Kd | koff | kon |
| --- | --- | --- | --- |
| B15 | 1.34 nM |  |  |
| B10 | 4.5 nM | 0.000188 s⁻¹ | 41700 M⁻¹ s⁻¹ |
| B11 | 5.29 nM | 0.000177 s⁻¹ | 33400 M⁻¹ s⁻¹ |
| B12 | 2.14 nM | 0.00025 s⁻¹ | 117000 M⁻¹ s⁻¹ |
| B13 | 2.36 nM | 0.00026 s⁻¹ | 110000 M⁻¹ s⁻¹ |
| B14 | 1.82 nM | 0.000195 s⁻¹ | 107000 M⁻¹ s⁻¹ |
